Assay [1] has as its target cynomolgus Vδ1 antigen DV1/GV77, recombinant heterodimer (食蟹猴 (cynomolgus)). The assay is described as follows: SPR (Reichert 4SPR), antibody on protein A chip.
Assay [2] deals with L1 (DV1-GV4), soluble human Vδ1Vγ4 γδTCR heterodimer, leucine zipper (LZ) format (human). Nature of the assay: SPR (Reichert 4SPR), antibody on protein A chip.

2 molecules from patent publication CN117999282A can be followed below.

Residue numbers refer to the chain shown, from its start. Names may count otherwise.

Chain of cynomolgus Vδ1 antigen DV1/GV77, recombinant heterodimer (食蟹猴 (cynomolgus)) (main, as listed by the source): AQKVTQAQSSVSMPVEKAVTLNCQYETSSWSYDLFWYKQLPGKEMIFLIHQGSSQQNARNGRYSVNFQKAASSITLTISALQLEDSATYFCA
Chain of L1 (DV1-GV4), soluble human Vδ1Vγ4 γδTCR heterodimer, leucine zipper (LZ) format (human) (main, as listed by the source): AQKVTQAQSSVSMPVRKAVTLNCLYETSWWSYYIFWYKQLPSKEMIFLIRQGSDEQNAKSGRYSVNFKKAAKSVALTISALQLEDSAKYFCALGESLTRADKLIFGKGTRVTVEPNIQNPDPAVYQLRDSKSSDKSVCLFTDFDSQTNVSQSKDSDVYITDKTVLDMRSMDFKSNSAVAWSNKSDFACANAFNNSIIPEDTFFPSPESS

B1: ADT1-4(S74L) (antibody, V domains shown)
VH: QVQLQQSGPGLVKPSQTLSLTCAISGDSVSSKSAAWNWIRQSPSRGLEWLGRTYYRSKWSTDYAASVKSRITINPDTSKNQLSLQLNSVTPEDTAVYYCARTWSGYVDVWGQGTLVTVSS
VL: DIQMTQSPPALSASVGDRVTITCRASQDINDWLAWYQHKPGKAPKLLIYDASSLESGVPLRFSGSGSGTEFTLTISSLQPDDFATYYCQQSYSTPQVTFGQGTRLEIKR
As to B1, the fold increase of affinity against ADT1-4 in assay [1] amounted to 5 fold.

B2: ADT1-4-2(L74S) (antibody, part only; not given: mutant kappa chain, V domains shown, part only)
VH: B1 VH with Q1E, S104V, V109R
On to B2, for which the results for the fold decrease of affinity against ADT1-4-2 in assay [1] and in assay [2] were 23 fold and 11 fold, respectively.
